Patent US8415393B2, “Anti-bacterial drug targeting of genome maintenance interfaces” (Wisconsin Alumni Research Foundation, priority 2007, dated 2013)
Where no end group is shown, it is not given here. fluorescein = fluorescein moiety attached to the N-terminus of the peptide (N-terminal fluorescein label)

Legend:
[1] = molecular target: T1, E. coli Exonuclease I (Escherichia coli, UniProt P04995 1-475); test: fluorescence anisotropy equilibrium binding (Kd,app), ExoI titrated into fluorescein-labeled peptide
T1 construct: also called ExoI; Exol
T1 sequence: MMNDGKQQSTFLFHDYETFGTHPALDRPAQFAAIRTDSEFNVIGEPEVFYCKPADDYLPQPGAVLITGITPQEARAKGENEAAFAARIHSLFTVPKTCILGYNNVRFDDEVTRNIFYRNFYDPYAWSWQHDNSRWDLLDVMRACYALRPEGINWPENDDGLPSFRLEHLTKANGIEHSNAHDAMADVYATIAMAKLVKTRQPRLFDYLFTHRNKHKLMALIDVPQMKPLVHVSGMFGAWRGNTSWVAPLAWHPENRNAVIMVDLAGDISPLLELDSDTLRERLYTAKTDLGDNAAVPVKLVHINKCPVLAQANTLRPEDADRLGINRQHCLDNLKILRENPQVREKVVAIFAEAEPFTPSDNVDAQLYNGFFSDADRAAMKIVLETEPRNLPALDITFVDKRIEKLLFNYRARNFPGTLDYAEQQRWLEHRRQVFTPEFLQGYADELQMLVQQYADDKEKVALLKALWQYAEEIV

[2] = molecular target: T2, ExoI Arg148Ala variant (Escherichia coli, UniProt P04995 1-475); test: fluorescence anisotropy equilibrium binding (Kd,app), ExoI variant titrated into fluorescein-labeled peptide
T2 construct: also called R148A; Arg148 variant
T2 sequence: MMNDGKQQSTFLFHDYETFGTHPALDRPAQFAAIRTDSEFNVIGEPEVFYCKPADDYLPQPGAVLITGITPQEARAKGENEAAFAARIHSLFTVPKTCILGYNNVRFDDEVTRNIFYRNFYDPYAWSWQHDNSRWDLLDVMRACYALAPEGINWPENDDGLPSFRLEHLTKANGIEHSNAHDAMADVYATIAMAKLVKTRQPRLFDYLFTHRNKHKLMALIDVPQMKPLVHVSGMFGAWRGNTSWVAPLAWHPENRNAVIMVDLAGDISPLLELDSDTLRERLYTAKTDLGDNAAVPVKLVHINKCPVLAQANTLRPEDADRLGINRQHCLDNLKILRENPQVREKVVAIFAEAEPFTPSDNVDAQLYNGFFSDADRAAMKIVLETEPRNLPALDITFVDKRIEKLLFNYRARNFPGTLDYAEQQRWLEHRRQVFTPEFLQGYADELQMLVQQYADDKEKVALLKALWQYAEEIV

[3] = molecular target: T3, ExoI Tyr207Ala variant (Escherichia coli, UniProt P04995 1-475); test: as above
T3 construct: also called Y207A; Tyr207 variant
T3 sequence: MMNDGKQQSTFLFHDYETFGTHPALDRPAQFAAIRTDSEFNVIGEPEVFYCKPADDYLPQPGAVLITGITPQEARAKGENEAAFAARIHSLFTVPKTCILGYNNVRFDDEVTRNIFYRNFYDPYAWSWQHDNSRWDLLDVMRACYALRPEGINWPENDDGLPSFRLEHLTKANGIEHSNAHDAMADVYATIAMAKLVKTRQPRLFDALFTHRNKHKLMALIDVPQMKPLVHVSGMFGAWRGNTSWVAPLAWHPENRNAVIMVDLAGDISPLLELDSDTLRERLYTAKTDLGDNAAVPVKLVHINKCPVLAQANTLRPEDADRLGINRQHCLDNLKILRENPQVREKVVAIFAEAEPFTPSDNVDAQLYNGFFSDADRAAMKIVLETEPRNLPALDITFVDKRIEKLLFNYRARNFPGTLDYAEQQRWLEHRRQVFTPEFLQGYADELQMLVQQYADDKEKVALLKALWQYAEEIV

[4] = molecular target: T4, ExoI Gln311Ala variant (Escherichia coli, UniProt P04995 1-475); test: as above
T4 construct: also called Q311A; Gln311 variant
T4 sequence: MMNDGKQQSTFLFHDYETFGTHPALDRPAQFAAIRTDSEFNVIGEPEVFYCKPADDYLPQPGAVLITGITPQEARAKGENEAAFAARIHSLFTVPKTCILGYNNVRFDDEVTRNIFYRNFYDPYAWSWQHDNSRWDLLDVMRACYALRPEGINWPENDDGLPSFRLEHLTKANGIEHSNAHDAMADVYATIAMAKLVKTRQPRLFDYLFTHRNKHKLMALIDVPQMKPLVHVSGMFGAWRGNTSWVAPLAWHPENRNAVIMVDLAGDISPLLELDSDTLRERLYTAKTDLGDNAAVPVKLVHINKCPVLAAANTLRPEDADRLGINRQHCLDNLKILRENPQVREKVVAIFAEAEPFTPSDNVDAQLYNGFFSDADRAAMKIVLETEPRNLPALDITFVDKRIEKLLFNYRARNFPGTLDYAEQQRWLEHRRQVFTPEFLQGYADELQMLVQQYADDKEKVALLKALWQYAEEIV

Binder: fluorescein-WMDFDDDIPF (also called F-SSB-Ct; F-WT) [fluorescein-labeled SSB C-terminal peptide (fluorescein-WMDFDDDIPF)]
- Kd [1]: 136 nM
- Kd [2]: > 1000 nM
- Kd [3]: > 1000 nM
- Kd [4]: 304 nM
